# In publication PMC9878632 (ACS Omega, 2023):
# Key:
# [1] = biological target: the molecule itself; assay: AUC
# [2] = biological target: the molecule itself; assay: crystal structure
protein,measurement,setting,value
"PYCR1 T171M variant (human Δ1-pyrroline-5-carboxylate reductase 1, Thr171Met) (enzyme, UniProt P32322 1-300, looked up) MSVGFIGAGQLAFALAKGFTAAGVLAAHKIMASSPDMDLATVSALRKMGVKLTPHNKETVQHSDVLFLAVKPHIIPFILDEIGADIEDRHIVVSCAAGVTISSIEKKLSAFRPAPRVIRCMTNTPVVVREGATVYATGTHAQVEDGRLMEQLLSSVGFCTEVEEDLIDAVMGLSGSGPAYAFTALDALADGGVKMGLPRRLAVRLGAQALLGAAKMLLHSEQHPGQLKDNVSSPGGATIHALHVLESGGFRSLLINAVEASCIRTRELQSMADQEQVSPAAIKKTILDKVKLDSPAGTAL",stoichiometry N,[1],2
same,stoichiometry N,[2],10
